Source: paper PMC12312386, “Multiple transactivation domains of EZH2 bind to the TAZ2 domain of p300 and stimulate the acetyltransferase function of p300” (Biochemical Journal, 2025)

Biological target: p300 TAZ2 domain with 6xHis tag (p300_(TAZ2)-6×His) (human) (UniProt Q09472)
Test: MST; p300_(TAZ2)-6×His labelled with RED-tris-NTA, constant at 10 nM; peptide varied by serial dilution; 25 mM Tris pH 7.5, 150 mM NaCl, 2.5 mM DTT; 1:1 stoichiometry fit

Row | Kd | Substance
1 | 0.53 µM | EZH2_(TAD3) peptide (aa 220-231 of EZH2) (from UniProt Q15910 220-231)
2 | 0.52 µM | EZH2_(TAD1) peptide (aa 142-154 of EZH2) (from UniProt Q15910 142-154)
3 | 0.31 µM | EZH2_(TAD2) peptide (aa 167-185 of EZH2) (from UniProt Q15910 167-185)
